Laboratory results as given in the supplement of paper PMC10567573.

B1: FBXO3 (parent)
chain: AGGFQQRQGLKYCLPLTFCIHTGL
B2: C10orf62 (parent)
chain: GHSHHSHHGHPSHQSHSLPNRRH

Variants of: B1
Assay: protein stability index of a GFP-peptide fusion (GPS, HEK-293T) (PSI 1-6); higher = more stable
Settings: c terminus: a fixed tail appended
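Further: lentivirally expressed fusions sorted by FACS into six bins by GFP to DsRed ratio, PSI derived from sequencing read proportions per bin multiplied by bin number.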

Protein stability index: each site, then its substitutions
I20: G 2.69; N 2.33; Q 2.62
Y12: E 2.29; K 2.49; P 1.68
A1: K 1.87; P 2.91; I 2
F4: Q 2.37; A 3.49; P 2.09
P15: F 2.95; I 3.05; K 1.13
Q8: L 2.56; T 3.56; I 2.51; D 1.88
L16: S 2.17; F 3.56; E 2.03
G9: L 3.97
H21: P 2.76
G3: S 2.44; T 3.31
T22: S 3.29; E 2.24
L14: D 1.78; I 4.28; N 2.34; Y 2.16; Q 2.57; C 3.66
Q6: T 2.67; S 2.81; P 3.26
Q5: V 2.33; N 2.77; P 1.71; H 1.87; K 2.88; A 3.05
C13: E 3.1; M 2.51; P 3.01
G23: C 3.16
R7: Y 2.27; I 2.12; G 3.16
L24: Q 1.96; S 2.14; H 2.7; A 2.48
C19: E 3.11; H 2.66; A 3.9; F 2.44; K 2.21; N 2.04
K11: C 2.12; V 3.35; A 2.43; W 4.04
T17: D 1.55; G 2.31; V 3.17
L10: T 2.53; W 3.49; N 2.56; H 1.64
F18: G 1.1; R 1.05; N 1.95
G2: R 2.59; K 3.68

Variants of: B2
Assay: as above
Settings: c terminus: native

Protein stability index of substitutions, site by site:
G9: T 1.87; L 2.26; W 3.1; V 3.15; D 2.41; A 2.81; H 3.58; S 2.37; C 4.56; K 3.76; E 3.5; P 1.91; N 2.82; F 3.35; M 3.76; Q 2.3; I 4.14
N20: E 4.47; P 2.07; A 2.97; F 2.31; I 2.29; Q 1.94; H 2.44; G 4.22; V 3.13; M 3.84; Y 2.58; T 3.28; K 3.23; D 3.58; S 1.35; L 3.05
H8: M 2.06; I 3.3; P 1.38; K 3.13; Q 2.84; E 2.42; R 2.72; S 2.96; F 3.5; T 3.37; Y 3.29; C 4; D 1.96; G 2.46; N 4.02; A 5.15
L18: M 2.16; H 4.06; Q 3.76; F 3.24; W 3.46; D 1.85; T 2.27; K 1.51; I 3.49; N 2.88; Y 2.08; A 3.18; P 2.11; C 2.94; E 3.19; G 2.38; V 2.52; R 4.23
H16: I 3.15; W 3.05; G 3.63; D 3.54; P 2.52; T 2.08; V 2.2; S 3; C 2.19; E 1.78; M 2.32; A 2.55; F 3.84
H13: L 3.34; E 2.68; T 3.08; S 2.65; A 3.6; Y 3.26; P 2.47; W 2.6; K 2.51; F 3.57; M 5.42; Q 2.12; D 2.86; C 3.33; R 2.55
P11: V 2.5; E 2.1; K 4.06; Q 3.94; I 4.55; L 3.12; Y 2.47; T 2.56; G 3.85; N 2.98; F 2.29; C 4.84; A 3.2; M 1.92; S 2.71; R 3.75; W 2.03; D 2.88
H10: P 2.43; C 3.79; S 2.08; M 2.98; W 3.14; Q 3.81; E 1.48; T 2.53; I 2.96; K 2.86; G 2.34; Y 3.67; A 3.41; D 1.74; R 3.48
R21: T 1.81; G 1.71; C 4.2; Q 2.38; I 2.36; E 2.81; A 1.97; F 2.13; S 1.67; W 2.43; M 2; K 1.94; V 1.39; H 2.67; D 2.2; P 2.05; Y 2.17; L 1.81; N 2.6
S17: D 2.43; P 4.04; R 4.84; Q 2.82; C 2.65; F 1.8; Y 4.98; I 2.64; M 3.01; A 2.08; W 2.37; T 4.17; E 2.14; V 1.69; G 3.77
H23: P 2.31; Y 3.4; A 2.23; R 4.71; C 2.68; N 3.15; L 3.52; K 4.73; I 2.78; M 2.18; V 2.35; Q 2.48; S 2.88; F 2.77; T 2.88; W 2.25
S12: W 3.49; Q 1.6; A 2.22; I 4.18; R 4.62; E 3; N 3.1; G 2.75; M 2.27; T 2.57; D 2.98; P 3.31; Y 2.21; L 2.34
S15: Q 2.95; Y 2.6; M 2.74; N 3.44; F 2.19; K 3.18; R 3.2; D 2.07; V 3.59; E 3.39; W 2.92; P 3.1; G 3.98; A 3.68; H 2.48; T 2.91
H7: S 3.47; R 3.22; P 4.21; W 2.41; T 2.66
R22: P 3.56; T 3.14; A 3.28; F 2.84; G 2.15; Q 2.69; H 4.93; D 3.39; E 2; W 2.86; Y 2.11; M 3; L 1.29; S 3.94; K 4
P19: K 2.15; D 3.02; R 2.09; Y 3.05; G 2.35; H 2.4; N 2.4; L 2.28; E 2; T 4.47; Q 2.38; F 2.38; C 2.95
Q14: M 4.32; P 2.67; I 2.95; H 3.42; D 3.4; G 2.82; A 3.39; E 2; W 3.44; S 2.26; T 3.78; K 2.75; R 3.61; N 2.92; V 2.08; F 2.56; Y 1.85
